Results published in publication PMC11601262.

Molecular target: T1, CFP tagged hABHD5 (FCCS) (human), Q8WTS1
T1 chain: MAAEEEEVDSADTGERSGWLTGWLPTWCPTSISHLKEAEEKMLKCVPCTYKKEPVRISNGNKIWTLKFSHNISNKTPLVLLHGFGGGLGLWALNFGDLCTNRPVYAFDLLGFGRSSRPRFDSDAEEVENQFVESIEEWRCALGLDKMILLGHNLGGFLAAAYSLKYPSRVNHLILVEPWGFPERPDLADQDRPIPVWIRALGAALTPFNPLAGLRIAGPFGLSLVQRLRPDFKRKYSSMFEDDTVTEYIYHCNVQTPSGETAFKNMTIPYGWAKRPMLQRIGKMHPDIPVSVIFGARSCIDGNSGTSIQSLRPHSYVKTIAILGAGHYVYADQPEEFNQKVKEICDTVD
Experiment: fluorescence cross-correlation spectroscopy
Details: remark: other sources report otherwise

B1: hPNPLA3 WT-EYFP, Q9NST1 1-481 (natural protein)
chain: MYDAERGWSLSFAGCGFLGFYHVGATRCLSEHAPHLLRDARMLFGASAGALHCVGVLSGIPLEQTLQVLSDLVRKARSRNIGIFHPSFNLSKFLRQGLCKCLPANVHQLISGKIGISLTRVSDGENVLVSDFRSKDEVVDALVCSCFIPFYSGLIPPSFRGVRYVDGGVSDNVPFIDAKTTITVSPFYGEYDICPKVKSTNFLHVDITKLSLRLCTGNLYLLSRAFVPPDLKVLGEICLRGYLDAFRFLEEKGICNRPQPGLKSSSEGMDPEVAMPSWANMSLDSSPESAALAVRLEGDELLDHLRLSILPWDESILDTLSPRLATALSEEMKDKGGYMSKICNLLPIRIMSYVMLPCTLPVESAIAIVQRLVTWLPDMPDDVLWLQWVTSQVFTRVLMCLLPASRSQMPVSSQQASPCTPEQDWPCWTPCSPKGCPAETKAEATPRSILRSSLNFFLGNKVPAGAEGLSTFPSFSLEKSL
In the case of B1, the percent of ABHD5 co-diffusing with PNPLA3 is reported as 24% and the percent of PNPLA3 co-diffusing with ABHD5 is reported as 78%.
